pIC50, pKd: −log10 of the molar value.
Experiments:
[1] = target: Biotinylated human TNFR2 protein (human) (UniProt P20333); experiment: BLI
[2] = target: human immunodeficiency virus 1 (HIV-1) (group M, subtype B, Isolate MN) gp120 Protein (HIV-1 (group M, subtype B, isolate MN)) (UniProt P05877); experiment: flow cytometry on cells

Sequence of recombinant TNFR2 protein (soluble, exogenous) (P20333 23-257): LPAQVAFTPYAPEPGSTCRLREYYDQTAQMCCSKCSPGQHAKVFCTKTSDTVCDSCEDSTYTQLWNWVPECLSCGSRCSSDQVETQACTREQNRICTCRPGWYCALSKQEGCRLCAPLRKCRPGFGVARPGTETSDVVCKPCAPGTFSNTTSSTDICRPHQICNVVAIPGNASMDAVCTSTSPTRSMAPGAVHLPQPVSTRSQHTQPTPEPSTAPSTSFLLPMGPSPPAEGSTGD
Sequence of Biotinylated human TNFR2 protein (human) (P20333 23-257): as above

| Substance | pKd [1] | pIC50 [2] | reduction in gp120 binding to Jurkat cells [2] [%] |
| --- | --- | --- | --- |
| human immunodeficiency virus 1 (HIV-1) (group M, subtype B, Isolate MN) gp120 Protein (from UniProt P05877 30-513) (natural protein) | 7.06 |  |  |
| recombinant TNFR2 protein (soluble, exogenous) (from UniProt P20333-1 23-257) (domain or fragment) |  | 6.97 | 65 |

Source: article PMC13137973
